Test results published in patent US20110217401.

Molecular target: human apolipoprotein B (apoB) of serum low density lipoprotein particles (UniProt P04114)
Sequence (P04114 28-4563): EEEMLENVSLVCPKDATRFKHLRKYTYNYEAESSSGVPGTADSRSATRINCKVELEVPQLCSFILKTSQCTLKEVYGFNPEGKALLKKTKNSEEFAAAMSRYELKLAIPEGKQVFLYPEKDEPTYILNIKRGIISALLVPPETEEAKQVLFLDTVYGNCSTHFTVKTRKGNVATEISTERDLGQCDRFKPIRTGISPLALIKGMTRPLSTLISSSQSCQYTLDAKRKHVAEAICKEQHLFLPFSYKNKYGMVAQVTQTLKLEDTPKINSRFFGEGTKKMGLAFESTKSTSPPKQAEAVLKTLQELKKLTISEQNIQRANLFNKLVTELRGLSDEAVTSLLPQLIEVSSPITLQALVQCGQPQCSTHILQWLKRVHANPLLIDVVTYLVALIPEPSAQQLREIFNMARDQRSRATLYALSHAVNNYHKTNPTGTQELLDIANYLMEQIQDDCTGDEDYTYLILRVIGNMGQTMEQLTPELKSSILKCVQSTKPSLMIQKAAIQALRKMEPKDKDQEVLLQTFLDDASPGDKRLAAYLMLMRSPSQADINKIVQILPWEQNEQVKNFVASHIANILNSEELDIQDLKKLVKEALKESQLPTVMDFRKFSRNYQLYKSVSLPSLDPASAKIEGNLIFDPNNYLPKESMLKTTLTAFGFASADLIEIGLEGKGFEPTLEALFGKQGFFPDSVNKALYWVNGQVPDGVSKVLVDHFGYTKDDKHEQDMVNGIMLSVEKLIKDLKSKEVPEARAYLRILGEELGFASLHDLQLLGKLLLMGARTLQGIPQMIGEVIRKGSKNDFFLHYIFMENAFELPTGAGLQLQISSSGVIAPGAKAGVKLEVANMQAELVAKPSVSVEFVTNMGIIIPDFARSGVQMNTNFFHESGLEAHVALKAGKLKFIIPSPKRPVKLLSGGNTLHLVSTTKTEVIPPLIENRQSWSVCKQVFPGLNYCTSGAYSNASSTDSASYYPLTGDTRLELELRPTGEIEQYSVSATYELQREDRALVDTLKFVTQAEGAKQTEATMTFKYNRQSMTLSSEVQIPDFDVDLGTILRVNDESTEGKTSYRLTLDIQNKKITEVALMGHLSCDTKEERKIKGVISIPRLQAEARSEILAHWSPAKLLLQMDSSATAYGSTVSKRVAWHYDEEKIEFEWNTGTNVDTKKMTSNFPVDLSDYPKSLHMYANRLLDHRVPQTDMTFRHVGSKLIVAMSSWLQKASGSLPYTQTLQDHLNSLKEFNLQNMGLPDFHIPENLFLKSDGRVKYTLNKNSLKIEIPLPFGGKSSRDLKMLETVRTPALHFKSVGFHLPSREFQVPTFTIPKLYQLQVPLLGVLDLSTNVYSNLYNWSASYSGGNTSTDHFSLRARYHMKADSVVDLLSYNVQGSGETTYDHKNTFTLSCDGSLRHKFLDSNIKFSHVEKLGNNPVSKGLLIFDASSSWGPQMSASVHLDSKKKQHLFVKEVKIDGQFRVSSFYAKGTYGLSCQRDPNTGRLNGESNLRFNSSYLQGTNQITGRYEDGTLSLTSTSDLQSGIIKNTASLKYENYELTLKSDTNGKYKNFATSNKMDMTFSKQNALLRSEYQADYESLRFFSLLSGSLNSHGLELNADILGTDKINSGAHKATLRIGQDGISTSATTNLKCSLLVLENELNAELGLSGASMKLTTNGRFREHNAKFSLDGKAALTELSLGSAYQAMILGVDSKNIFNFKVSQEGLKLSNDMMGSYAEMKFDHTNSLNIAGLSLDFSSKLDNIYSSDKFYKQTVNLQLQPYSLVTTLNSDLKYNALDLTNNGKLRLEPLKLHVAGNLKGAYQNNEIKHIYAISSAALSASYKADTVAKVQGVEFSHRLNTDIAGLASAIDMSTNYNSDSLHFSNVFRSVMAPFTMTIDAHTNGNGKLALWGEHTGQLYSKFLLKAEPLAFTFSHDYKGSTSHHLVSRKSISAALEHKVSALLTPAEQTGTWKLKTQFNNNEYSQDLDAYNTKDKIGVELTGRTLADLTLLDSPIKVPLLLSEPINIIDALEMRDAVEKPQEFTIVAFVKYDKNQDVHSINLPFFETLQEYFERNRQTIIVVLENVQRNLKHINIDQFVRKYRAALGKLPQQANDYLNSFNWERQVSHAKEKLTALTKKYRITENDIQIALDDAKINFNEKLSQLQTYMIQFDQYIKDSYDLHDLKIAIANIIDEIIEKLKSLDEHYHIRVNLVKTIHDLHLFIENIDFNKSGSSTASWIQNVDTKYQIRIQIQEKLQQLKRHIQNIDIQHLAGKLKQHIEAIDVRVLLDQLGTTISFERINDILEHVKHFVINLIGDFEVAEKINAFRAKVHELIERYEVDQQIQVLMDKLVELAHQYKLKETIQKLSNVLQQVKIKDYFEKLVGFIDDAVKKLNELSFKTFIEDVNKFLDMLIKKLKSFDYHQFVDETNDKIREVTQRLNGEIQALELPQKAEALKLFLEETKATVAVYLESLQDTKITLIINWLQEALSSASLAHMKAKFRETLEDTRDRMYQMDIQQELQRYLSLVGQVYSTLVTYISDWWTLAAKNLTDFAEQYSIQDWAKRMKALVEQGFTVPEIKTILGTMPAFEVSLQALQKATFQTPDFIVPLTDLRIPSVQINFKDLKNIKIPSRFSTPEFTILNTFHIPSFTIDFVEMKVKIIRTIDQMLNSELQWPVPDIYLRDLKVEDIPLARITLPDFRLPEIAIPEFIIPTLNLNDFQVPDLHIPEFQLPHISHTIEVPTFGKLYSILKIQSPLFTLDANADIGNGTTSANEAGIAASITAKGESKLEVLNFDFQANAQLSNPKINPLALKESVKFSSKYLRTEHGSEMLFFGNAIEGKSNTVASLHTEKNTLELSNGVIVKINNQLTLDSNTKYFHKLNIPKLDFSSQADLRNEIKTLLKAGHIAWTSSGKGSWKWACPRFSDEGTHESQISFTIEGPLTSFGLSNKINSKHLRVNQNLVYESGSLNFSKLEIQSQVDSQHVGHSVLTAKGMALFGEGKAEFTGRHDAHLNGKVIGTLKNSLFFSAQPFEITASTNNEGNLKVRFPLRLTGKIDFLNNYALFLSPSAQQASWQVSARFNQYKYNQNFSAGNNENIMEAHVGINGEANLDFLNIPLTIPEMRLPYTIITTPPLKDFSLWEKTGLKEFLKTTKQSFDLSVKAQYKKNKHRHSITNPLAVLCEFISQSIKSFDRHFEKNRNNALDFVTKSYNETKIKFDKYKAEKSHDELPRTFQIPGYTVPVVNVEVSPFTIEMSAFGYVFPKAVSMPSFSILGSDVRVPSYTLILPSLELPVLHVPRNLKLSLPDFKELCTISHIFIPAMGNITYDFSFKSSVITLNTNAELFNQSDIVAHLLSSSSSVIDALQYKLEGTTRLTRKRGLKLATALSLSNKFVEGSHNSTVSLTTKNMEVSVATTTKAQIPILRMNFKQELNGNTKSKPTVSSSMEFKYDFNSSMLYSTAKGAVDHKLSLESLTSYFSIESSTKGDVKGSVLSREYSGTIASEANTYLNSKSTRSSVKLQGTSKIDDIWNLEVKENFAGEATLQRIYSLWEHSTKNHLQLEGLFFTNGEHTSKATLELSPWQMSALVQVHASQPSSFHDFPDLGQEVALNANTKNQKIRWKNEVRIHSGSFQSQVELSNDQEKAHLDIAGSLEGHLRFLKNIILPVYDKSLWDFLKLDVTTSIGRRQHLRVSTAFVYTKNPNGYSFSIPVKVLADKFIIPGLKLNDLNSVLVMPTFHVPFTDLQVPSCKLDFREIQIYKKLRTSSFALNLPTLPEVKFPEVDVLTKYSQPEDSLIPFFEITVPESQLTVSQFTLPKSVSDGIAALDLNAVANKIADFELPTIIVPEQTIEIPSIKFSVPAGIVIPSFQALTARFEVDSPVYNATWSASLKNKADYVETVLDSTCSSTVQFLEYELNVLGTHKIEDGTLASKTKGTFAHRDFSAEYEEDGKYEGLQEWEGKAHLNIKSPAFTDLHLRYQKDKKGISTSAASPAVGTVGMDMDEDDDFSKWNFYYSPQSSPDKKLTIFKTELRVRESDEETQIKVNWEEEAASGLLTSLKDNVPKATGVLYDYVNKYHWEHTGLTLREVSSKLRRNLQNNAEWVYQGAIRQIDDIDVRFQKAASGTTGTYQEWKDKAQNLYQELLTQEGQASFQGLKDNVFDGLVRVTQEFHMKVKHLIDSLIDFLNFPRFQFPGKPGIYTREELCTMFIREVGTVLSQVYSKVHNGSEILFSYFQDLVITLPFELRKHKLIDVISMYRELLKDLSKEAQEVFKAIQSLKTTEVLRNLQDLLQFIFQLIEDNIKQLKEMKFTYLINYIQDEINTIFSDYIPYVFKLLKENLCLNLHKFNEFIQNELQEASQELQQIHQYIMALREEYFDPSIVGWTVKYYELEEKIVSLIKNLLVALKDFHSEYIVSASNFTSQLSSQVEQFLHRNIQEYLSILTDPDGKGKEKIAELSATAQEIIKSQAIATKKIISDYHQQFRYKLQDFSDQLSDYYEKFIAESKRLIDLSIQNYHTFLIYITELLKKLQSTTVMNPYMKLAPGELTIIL

recombinant arNOX SF2 (recombinant apoBNOX, TM9SF2 expressed in E. coli from pET11a-TM9SF2)
Oxidation of protein thiols of human apoB (DTNB reactivity), nmoles SH oxidized, complete mixture, 2 h (nmoles SH oxidized): 500 | Oxidation of protein thiols of human apoB (DTNB reactivity), relative units, complete mixture, 2 h (relative units): 25
